Measurements from paper PMC5841405 (2018).
Changes are numbered by the printed parent chain. Numbers in names are those of the source. Where two headings read alike, the source gives them in different places.

T1: BICD2_(1–98) (human, UniProt Q8TD16-1 1-98)
T1 chain: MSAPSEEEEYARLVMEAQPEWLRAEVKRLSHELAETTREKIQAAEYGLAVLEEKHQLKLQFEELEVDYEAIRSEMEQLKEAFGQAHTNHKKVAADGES

T2: Spindly_(1–142) (human, UniProt Q96EA4-1 1-142)
T2 chain: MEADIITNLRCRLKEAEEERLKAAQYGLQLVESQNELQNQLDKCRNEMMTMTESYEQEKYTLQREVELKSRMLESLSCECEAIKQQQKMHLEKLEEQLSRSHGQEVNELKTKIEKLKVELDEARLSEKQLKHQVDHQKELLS

B1: Hook3_(1–160)A138D (domain or fragment)
chain: MFSVESLERAELCESLLTWIQTFNVDAPCQTVEDLTNGVVMAQVLQKIDPAYFDENWLNRIKTEVGDNWRLKISNLKKILKGILDYNHEILGQQINDFTLPDVNLIGEHSDAAELGRMLQLILGCAVNCEQKQEYIQDIMMMEESVQHVVMTAIQELMSK
B2: Hook3_(1–160) (domain or fragment)
chain: B1 chain with D138A
B3: LIC1_(433–458) (peptide)
chain: NMKAGATSEGVLANFFNSLLSKKTGS

Legend:
MBP-LIC1FL [1] = target: MBP-LIC1FL (human); assay: ITC
MBP-LIC1FL (human), sequence (chain, as listed by the source): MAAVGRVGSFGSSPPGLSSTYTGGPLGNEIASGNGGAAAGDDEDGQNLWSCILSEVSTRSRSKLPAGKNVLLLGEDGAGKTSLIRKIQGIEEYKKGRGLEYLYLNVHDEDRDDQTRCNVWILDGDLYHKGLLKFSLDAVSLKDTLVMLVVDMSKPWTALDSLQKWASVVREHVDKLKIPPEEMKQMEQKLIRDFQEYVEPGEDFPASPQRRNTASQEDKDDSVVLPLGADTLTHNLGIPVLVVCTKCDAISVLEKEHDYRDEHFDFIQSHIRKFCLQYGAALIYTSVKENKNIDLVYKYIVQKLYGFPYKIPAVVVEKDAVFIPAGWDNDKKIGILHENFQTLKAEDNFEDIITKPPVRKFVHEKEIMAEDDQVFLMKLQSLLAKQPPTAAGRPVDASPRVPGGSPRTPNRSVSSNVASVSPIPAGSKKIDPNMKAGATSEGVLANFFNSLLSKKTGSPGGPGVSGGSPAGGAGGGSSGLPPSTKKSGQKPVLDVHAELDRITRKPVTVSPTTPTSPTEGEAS

MBP-LIC1FL [2] = target: MBP-LIC1FL (human); assay: ITC; remark: listed apart in the source
BICD2_(1–98) [3] = target: T1, BICD2_(1–98); assay: ITC; second site (KD2), 30°C
Spindly_(1–142) [4] = target: T2, Spindly_(1–142); assay: ITC; first site (KD1)
Spindly_(1–142) [5] = target: T2, Spindly_(1–142); assay: ITC; second site (KD2)
Hook3_(1–160) = target: B2; assay: ITC
BICD2_(1–98) [6] = target: T1, BICD2_(1–98); assay: ITC; first site (KD1), 30°C

Binder: B1
Kd (MBP-LIC1FL [1]): 8.1 µM

Binder: B2
Kd (MBP-LIC1FL [2]): 12.3 µM

Binder: B3
Kd (BICD2_(1–98) [3]): 7.5 µM
Kd (Spindly_(1–142) [4]): 3.6 µM
Kd (Spindly_(1–142) [5]): 7.6 µM
Kd (Hook3_(1–160)): 6.3 µM
Kd (BICD2_(1–98) [6]): 1500 nM
